Source: publication PMC6080931 (The Journal of Cell Biology, 2018)
Values belong to the molecule of their own block, whether it stands above or below them.

Tests used:
[1] = target: Atg2 (untagged, overproduced, of the purified Atg2–Atg18 complexes) (S. cerevisiae) (UniProt P53855); assay: liposome flotation assay
[2] = target: Atg2 (untagged, overproduced, of the purified Atg2–Atg18 complexes) (S. cerevisiae, UniProt P53855 1-1592); assay: liposome flotation assay
Atg2 (untagged, overproduced, of the purified Atg2–Atg18 complexes), sequence (P53855 whole entry, one chain of several): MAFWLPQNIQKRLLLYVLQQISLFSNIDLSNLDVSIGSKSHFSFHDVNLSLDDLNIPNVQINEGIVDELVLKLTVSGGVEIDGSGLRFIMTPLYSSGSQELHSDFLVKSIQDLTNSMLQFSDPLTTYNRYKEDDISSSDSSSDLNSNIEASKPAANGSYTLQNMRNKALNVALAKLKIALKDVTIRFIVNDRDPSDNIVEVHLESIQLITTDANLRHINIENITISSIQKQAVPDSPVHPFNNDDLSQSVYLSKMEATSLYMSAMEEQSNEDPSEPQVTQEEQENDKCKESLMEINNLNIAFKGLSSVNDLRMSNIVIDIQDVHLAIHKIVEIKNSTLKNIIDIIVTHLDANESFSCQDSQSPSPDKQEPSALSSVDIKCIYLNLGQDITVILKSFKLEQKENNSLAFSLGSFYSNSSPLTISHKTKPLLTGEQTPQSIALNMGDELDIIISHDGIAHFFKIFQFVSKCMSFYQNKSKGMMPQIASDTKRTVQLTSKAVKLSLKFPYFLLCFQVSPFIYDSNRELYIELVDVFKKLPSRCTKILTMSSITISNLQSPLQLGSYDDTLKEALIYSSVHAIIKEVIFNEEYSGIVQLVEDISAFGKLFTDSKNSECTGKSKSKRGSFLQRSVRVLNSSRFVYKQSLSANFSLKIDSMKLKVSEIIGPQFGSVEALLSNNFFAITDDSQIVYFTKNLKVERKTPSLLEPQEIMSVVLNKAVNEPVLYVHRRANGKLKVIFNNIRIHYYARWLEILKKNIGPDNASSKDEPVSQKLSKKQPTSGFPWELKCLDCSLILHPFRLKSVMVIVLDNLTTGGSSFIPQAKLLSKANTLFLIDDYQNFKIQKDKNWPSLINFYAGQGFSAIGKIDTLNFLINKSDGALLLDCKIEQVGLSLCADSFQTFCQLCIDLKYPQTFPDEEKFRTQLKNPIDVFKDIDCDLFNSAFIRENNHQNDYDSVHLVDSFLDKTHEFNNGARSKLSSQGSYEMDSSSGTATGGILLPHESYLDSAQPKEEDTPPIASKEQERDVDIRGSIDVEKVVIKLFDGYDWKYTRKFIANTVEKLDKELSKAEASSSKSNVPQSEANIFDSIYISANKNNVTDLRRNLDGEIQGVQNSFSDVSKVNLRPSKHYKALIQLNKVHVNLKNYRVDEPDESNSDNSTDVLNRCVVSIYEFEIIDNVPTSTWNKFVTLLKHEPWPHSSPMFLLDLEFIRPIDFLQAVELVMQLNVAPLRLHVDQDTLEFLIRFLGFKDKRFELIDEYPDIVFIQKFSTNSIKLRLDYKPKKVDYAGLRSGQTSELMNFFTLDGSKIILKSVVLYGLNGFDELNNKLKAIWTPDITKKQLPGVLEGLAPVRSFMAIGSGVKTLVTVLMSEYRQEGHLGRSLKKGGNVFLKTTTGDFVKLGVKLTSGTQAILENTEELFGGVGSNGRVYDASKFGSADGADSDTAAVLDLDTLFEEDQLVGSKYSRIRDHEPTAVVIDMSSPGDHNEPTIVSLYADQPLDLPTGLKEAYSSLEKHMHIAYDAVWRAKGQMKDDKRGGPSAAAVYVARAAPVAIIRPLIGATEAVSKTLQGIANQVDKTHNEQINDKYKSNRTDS

Atg2 (untagged, overproduced, of the purified Atg2–Atg18 complexes) (S. cerevisiae), sequence (P53855 whole entry, one chain of several): as above

percent of Atg18^FAAG on liposomes with Atg9 [1]: < 58%
Molecule: Atg18^FAAG-TAP (overproduced, mutant unable to bind PtdIns3P) (from UniProt P43601 1-500) (natural protein)

stoichiometry N [2]: ~1 ratio
B1: Atg18-TAP (overproduced, of the purified Atg2–Atg18 complexes) (natural protein, S. cerevisiae, UniProt P43601 1-500, looked up)
chain: MSDSSPTINFINFNQTGTCISLGTSKGFKIFNCEPFGKFYSEDSGGYAIVEMLFSTSLLALVGIGDQPALSPRRLRIINTKKHSIICEVTFPTSILSVKMNKSRLVVLLQEQIYIYDINTMRLLHTIETNPNPRGLMAMSPSVANSYLVYPSPPKVINSEIKAHATTNNITLSVGGNTETSFKRDQQDAGHSDISDLDQYSSFTKRDDADPTSSNGGNSSIIKNGDVIVFNLETLQPTMVIEAHKGEIAAMAISFDGTLMATASDKGTIIRVFDIETGDKIYQFRRGTYATRIYSISFSEDSQYLAVTGSSKTVHIFKLGHSMSNNKLDSDDSNMEEAAADDSSLDTTSIDALSDEENPTRLAREPYVDASRKTMGRMIRYSSQKLSRRAARTLGQIFPIKVTSLLESSRHFASLKLPVETNSHVMTISSIGSPIDIDTSEYPELFETGNSASTESYHEPVMKMVPIRVVSSDGYLYNFVMDPERGGDCLILSQYSILMD
